T1: CMG2 38-218 (Homo sapiens), P58335
T1 chain: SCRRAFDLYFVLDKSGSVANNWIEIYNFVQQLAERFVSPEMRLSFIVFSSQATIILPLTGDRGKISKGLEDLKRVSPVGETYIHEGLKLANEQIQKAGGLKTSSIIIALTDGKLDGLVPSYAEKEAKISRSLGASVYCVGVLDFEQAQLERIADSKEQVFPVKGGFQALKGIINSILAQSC


Key:
Details in all cases: modification not given
[1] = target: T2, Protective antigen (PA) 488-735 (Bacillus anthracis), P13423; assay: ELISA
[2] = target: T2, Protective antigen (PA) 488-735 …
[3] = target: T1, CMG2 38-218 (Homo sapiens), P58335; assay: sandwich ELISA (competition with His6-PA 488-735)
[4] = target: T1, CMG2 38-218 (Homo sapiens), P58335; assay: microscale thermophoresis
[5] = target: T1, CMG2 38-218 (Homo sapiens), P58335; assay: sandwich ELISA (competition with His6-PA 596-735)

Binder	IC50 [1]	Kd [2]	IC50 [3]	Kd [4]	IC50 [5]
HPCNAMF [HPCNAMF (scrambled CMNHFPA)]	153 µM				
CMNHFPA	49.8 µM	38.2 µM			
CLRFT			77.1 µM	30.2 µM	71.3 µM

— publication PMC5465072
